The PETadex activity labels (doi:10.1002/cssc.202101062)

Assays:
PET [1] = test: Proxy for plastic degradation [Weight/mass loss]; details: pH 8
gfPET [2] = test: Proxy for plastic degradation [Weight/mass loss]; details: pH 8
gfPET [3] = test: Proxy for plastic degradation [Released monomer concentration (HPLC/LC-MS) (TPA+MHET+BHET)]
PET [4] = test: Proxy for plastic degradation [Released monomer concentration (HPLC/LC-MS) (TPA+MHET)]; details: pH 8

B1: unnamed (protein)
chain: MANPYERGPNPTDALLEARSGPFSVSEENVSRLSASGFGGGTIYYPRENNTYGAVAISPGYTGTEASIAWLGERIASHGFVVITIDTITTLDQPDSRAEQLNAALNHMINRASSTVRSRIDSSRLAVMGHSMGGGGSLRLASQRPDLKAAIPLTPWHLNKNWSSVRVPTLIIGADLDTIAPVLTHARPFYNSLPTSISKAYLELDGATHFAPNIPNKIIGKYSVAWLKRFVDNDTRYTQFLCPGPRDGLFGEVEEYRSTCPF
Proxy for plastic degradation (PET [1]; 45 °C): 0.5%
Proxy for plastic degradation (PET [1]; 50 °C): 1%
Proxy for plastic degradation (PET [1]; 55 °C): 1%
Proxy for plastic degradation (PET [1]; 60 °C): 1%
Proxy for plastic degradation (PET [1]; 65 °C): 15%
Proxy for plastic degradation (PET [1]; 70 °C): 18%
Proxy for plastic degradation (PET [1]; 75 °C): 15%

B2: unnamed (protein)
chain: MANPYERGPNPTDALLEARSGPFSVSEENVSRLSASGFGGGTIYYPRENNTYGAVAISPGYTGTEASIAWLGERIASHGFVVITIDTITTLDQPDSRAEQLNAALNHMINRASSTVRSRIDSSRLAVMGHSMGGGGSLRLASQRPDLKAAIPLTPWHLNKNWSSVTVPTLIIGADLDTIAPVATHAKPFYNSLPSSISKAYLELDGATHFAPNIPNKIIGKYSVAWLKRFVDNDTRYTQFLCPGPRDGLFGEVEEYRSTCPF
Proxy for plastic degradation (gfPET [2]; 65 °C): 7%
Proxy for plastic degradation (gfPET [2]; 70 °C): 8%
Proxy for plastic degradation (gfPET [2]; 75 °C): 2%
Proxy for plastic degradation (gfPET [3]; 40 °C): 0 mmol/h
Proxy for plastic degradation (gfPET [3]; 50 °C): 0.05 mmol/h
Proxy for plastic degradation (gfPET [3]; 55 °C): 0.08 mmol/h
Proxy for plastic degradation (gfPET [3]; 60 °C): 0.18 mmol/h
Proxy for plastic degradation (gfPET [3]; 65 °C): 0.2 mmol/h
Proxy for plastic degradation (gfPET [3]; 70 °C): 0.2 mmol/h
Proxy for plastic degradation (gfPET [3]; 75 °C): 0.08 mmol/h
Proxy for plastic degradation (gfPET [3]; 80 °C): 0.05 mmol/h
Proxy for plastic degradation (gfPET [3]; 85 °C): 0 mmol/h

B3: unnamed (protein)
chain: MENPYERGPDPTESSIEAVRGPFAVAQTTVSRLQADGFGGGTIYYPTDTSQGTFGAVAISPGFTAGQESIAWLGPRIASQGFVVITIDTITRLDQPDSRGRQLQAALDHLRTNSVVRNRIDPNRMAVMGHSMGGGGALSAAANNTSLEAAIPLQGWHTRKNWSSVRTPTLVVGAQLDTIAPVSSHSEAFYNSLPSDLDKAYMELRGASHFVSNTPDTTTAKYSIAWLKRFVDNDLRYEQFLCPAPDDFAISEYRATCPF
Proxy for plastic degradation (PET [1]; 65 °C): 15%
Proxy for plastic degradation (PET [1]; 70 °C): 20%
Proxy for plastic degradation (PET [1]; 75 °C): 18%
Proxy for plastic degradation (gfPET [2]; 65 °C): 18%
Proxy for plastic degradation (gfPET [2]; 70 °C): 18%
Proxy for plastic degradation (gfPET [2]; 75 °C): 18%
Proxy for plastic degradation (gfPET [3]; 40 °C): 0 mmol/h
Proxy for plastic degradation (gfPET [3]; 50 °C): 0.08 mmol/h
Proxy for plastic degradation (gfPET [3]; 55 °C): 0.11 mmol/h
Proxy for plastic degradation (gfPET [3]; 60 °C): 0.18 mmol/h
Proxy for plastic degradation (gfPET [3]; 65 °C): 0.25 mmol/h
Proxy for plastic degradation (gfPET [3]; 70 °C): 0.3 mmol/h
Proxy for plastic degradation (gfPET [3]; 75 °C): 0.38 mmol/h
Proxy for plastic degradation (gfPET [3]; 80 °C): 0.41 mmol/h
Proxy for plastic degradation (gfPET [3]; 85 °C): 0.38 mmol/h

B4: unnamed (protein)
chain: MANPYERGPDPTESSIEAVRGPFAVAQTTVSRLQADGFGGGTIYYPTDTSQGTFGAVAISPGFTAGQESIAWLGPRIASQGFVVITIDTITRLDQPDSRGRQLQAALDHLRTNSVVRNRIDPNRMAVMGHSMGGGGALSAAANNTSLEAAIPLQGWHTRKNWSSVRTPTLVVGAQLDTIAPVSSHSEAFYNSLPSDLDKAYMELRGASHLVSNTPDTTTAKYSIAWLKRFVDDDLRYEQFLCPAPDDFAISEYRSTCPF
Proxy for plastic degradation (PET [1]; 65 °C, part of the chain shown): 75%
Proxy for plastic degradation (PET [1]; 70 °C, part of the chain shown): 95%
Proxy for plastic degradation (PET [1]; 75 °C, part of the chain shown): 60%
Proxy for plastic degradation (gfPET [2]; 65 °C, part of the chain shown): 77%
Proxy for plastic degradation (gfPET [2]; 70 °C, part of the chain shown): 90%
Proxy for plastic degradation (gfPET [2]; 75 °C, part of the chain shown): 58%
Proxy for plastic degradation (PET [4]; 0 h, part of the chain shown): 0 mM
Proxy for plastic degradation (PET [4]; 4 h, part of the chain shown): 15 mM
Proxy for plastic degradation (PET [4]; 8 h, part of the chain shown): 26 mM
Proxy for plastic degradation (PET [4]; 16 h, part of the chain shown): 50 mM
Proxy for plastic degradation (gfPET [3]; 40 °C, part of the chain shown): 0 mmol/h
Proxy for plastic degradation (gfPET [3]; 50 °C, part of the chain shown): 0.45 mmol/h
Proxy for plastic degradation (gfPET [3]; 55 °C, part of the chain shown): 0.8 mmol/h
Proxy for plastic degradation (gfPET [3]; 60 °C, part of the chain shown): 0.9 mmol/h
Proxy for plastic degradation (gfPET [3]; 65 °C, part of the chain shown): 1.1 mmol/h
Proxy for plastic degradation (gfPET [3]; 70 °C, part of the chain shown): 1.4 mmol/h
Proxy for plastic degradation (gfPET [3]; 75 °C, part of the chain shown): 1.7 mmol/h
Proxy for plastic degradation (gfPET [3]; 80 °C, part of the chain shown): 1.65 mmol/h
Proxy for plastic degradation (gfPET [3]; 85 °C, part of the chain shown): 0.9 mmol/h

B5: unnamed (protein)
chain: MDGVLWRVRTAALMAALLALAAWALVWASPSVEAQSNPYQRGPNPTRSALTADGPFSVATYTVSRLSVSGFGGGVIYYPTGTSLTFGGIAMSPGYTADASSLAWLGRRLASHGFVVLVINTNSRFDYPDSRASQLSAALNYLRTSSPSAVRARLDANRLAVAGHSMGGGGTLRIAEQNPSLKAAVPLTPWHTDKTFNTSVPVLIVGAEADTVAPVSQHAIPFYQNLPSTTPKVYVELDNASHFAPNSNNAAISVYTISWMKLWVDNDTRYRQFLCNVNDPALSDFRTNNRHCQ
Proxy for plastic degradation (PET [4]; 0 h): 0 mM
Proxy for plastic degradation (PET [4]; 4 h): 3 mM
Proxy for plastic degradation (PET [4]; 8 h): 7 mM
Proxy for plastic degradation (PET [4]; 16 h): 29 mM
